± gives the standard deviation of the averaged measurements.
The sequences below were run on ATP (assay: switch fluorescence ratio, 500 uM ATP over buffer (Cy3 cluster intensity, sum of 5 cycles each) (fold (ratio)); higher = stronger signal-on switching upon ATP binding; sequences stand for … in TCGTCGGCAGCGTCAGATGTGTATAAGAGACAGTTTTTTTTTTTTTTTTTTTTTTTTT…TC). Conditions: aptamer strand: ATP DNA aptamer (quencher-CACCTGGGGGAGTATTGCGGAGGAAGG + anchor), 100 nM annealed; ATP concentration: 500 uM.
Procedure, shortened: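 Switching-strand clusters labelled with Cy3 on a modified Illumina MiSeq flow-cell were annealed to 100 nM quencher-labelled ATP aptamer, imaged in selection buffer, and re-imaged after 15 min with 500 uM ATP at 22 °C. This was done over five cycles with NaOH stripping and re-annealing in between. The fluorescence ratio is summed target-cycle over summed buffer-cycle Cy3 intensity per cluster, averaged per switch-domain sequence, excluding clusters outside 100-1000 RFU.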
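Note: ATP exposure 15 min at 22 °C before imaging.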

| Sequence | switch fluorescence ratio |
| --- | --- |
| GCTGGTTGTT | 1.03 ± 0.041 |
| AGAGGGAATG | 0.975 ± 0.03 |
| GATATGTGGA | 0.995 ± 0.032 |
| TTGTGGAGAG | 1.09 ± 0.12 |
| TGGTTTGATC | 1.01 ± 0.026 |
| TTAAAAATCA | 0.984 ± 0.025 |
| TGGTACCTTT | 1.04 ± 0.012 |
| ACTTTCGGGA | 0.995 ± 0.011 |
| TCCGGGGCAA | 3.73 ± 2 |
| TAATAATTGG | 1.04 ± 0.057 |
| GTGGTGGGAC | 0.972 ± 0.042 |
| GTATTACAGG | 1.04 ± 0.04 |
| CGTGGAACGA | 1.01 ± 0.058 |
| ATGCTGGGCG | 1.02 ± 0.041 |
| TTTTCTGTTT | 0.996 ± 0.047 |
| TCCGGTAGTT | 1.06 ± 0.013 |
| TGTGGGTAAA | 1.01 ± 0.042 |
| CGTGATTTGG | 1.006 ± 0.0065 |
| TATTTATGTA | 1.01 ± 0.045 |
| AGAGGCAAGG | 1.0062 ± 0.0002 |
| CAAAAGTAAC | 1.07 ± 0.032 |
| GCATTAGGAC | 1.24 ± 0.018 |
| GCCCGATCAC | 1.151 ± 0.0086 |

| Sequence | switch fluorescence ratio |
| --- | --- |
| GGCGGGGGTC | 1.01 ± 0.029 |
| CCGAAAATAG | 3.58 ± 0.48 |
| GGTAAGGGGG | 0.99 ± 0.031 |
| AAATCAATGT | 1.02 ± 0.035 |
| TTTGTGTCAC | 0.984 ± 0.034 |
| TTAGATCGCC | 0.969 ± 0.027 |
| ATGGGGGCAC | 0.971 ± 0.032 |
| TCATAAGTTG | 0.9957 ± 0.0042 |
| ATCTCTGGTC | 0.976 ± 0.027 |
| GGTTGAGGTC | 1 ± 0.023 |
| TCCTTGATTG | 0.974 ± 0.057 |
| CCAGGCGTAT | 1.032 ± 0.0023 |
| TGTTGTATTG | 0.9761 ± 0.0066 |
| CGGCGTACTG | 1.03 ± 0.059 |
| AATTTTTCCG | 1.05 ± 0.036 |
| CGGGCAATTT | 1.38 ± 0.1 |
| GGGGGGCTTG | 1.02 ± 0.043 |
| TCGTAATAGT | 1.62 ± 0.068 |
| AATCCTGCGT | 1.16 ± 0.21 |
| GCATGAGTGC | 1.07 ± 0.061 |
| CGGTCCGTTT | 1.02 ± 0.042 |
| TTCTGGAACT | 1.03 ± 0.015 |
| TGTTTAAGTT | 1.02 ± 0.023 |

| Sequence | switch fluorescence ratio |
| --- | --- |
| TTATGTTTCT | 0.972 ± 0.026 |
| GGGGGCACGA | 1.07 ± 0.021 |
| AGGGGATTGG | 0.991 ± 0.015 |
| TAGGGTAAAT | 0.985 ± 0.012 |
| TATTAGGCAT | 1.15 ± 0.23 |
| TTGGTTTTAA | 1.03 ± 0.014 |
| TTGCGGGGTA | 0.978 ± 0.013 |
| AAAATTGGGG | 1.02 ± 0.039 |
| GTGATATGGA | 0.992 ± 0.014 |
| TGACGGTGGG | 0.962 ± 0.023 |
| AGGTGACGGT | 0.9809 ± 0.0085 |
| AAGGGCGGGC | 1.07 ± 0.0085 |
| GGTTTTTCGC | 1.028 ± 0.0029 |
| AAAAAGGGCC | 1.009 ± 0.0089 |
| GGGATGGGGT | 0.988 ± 0.029 |
| GGTCGCGTAG | 1.01 ± 0.03 |
| ATAGACAGGC | 1.04 ± 0.021 |
| TATGATTTGC | 1 ± 0.012 |
| TCCTACTGGG | 1.04 ± 0.028 |
| CTGGGGGCTC | 1.01 ± 0.018 |
| CAAGGTAAGG | 0.984 ± 0.011 |
| TGGACTGGGG | 0.9861 ± 0.0056 |
| CAGGTGTCTG | 1.13 ± 0.032 |

| Sequence | switch fluorescence ratio |
| --- | --- |
| TGCCCGCCCT | 1.08 ± 0.065 |
| GGGGAAATAT | 0.981 ± 0.024 |
| GTGGGTATGG | 1.002 ± 0.01 |
| GGGTTTCAGT | 0.9503 ± 0.0066 |
| ACGGTCAGTC | 1.05 ± 0.077 |
| GCACATTGCT | 1.02 ± 0.013 |
| AAGTTGTATT | 0.9974 ± 0.0019 |
| TGTTGGGTGC | 0.996 ± 0.037 |
| CCATTATAT | 0.982 ± 0.043 |
| TGAAGCTGAT | 1.02 ± 0.059 |
| TTGACGGTGG | 1.05 ± 0.086 |
| TTAGGCTACT | 1.01 ± 0.035 |
| GCGTTTGGGG | 1.01 ± 0.043 |
| ATCGGGGAGA | 0.997 ± 0.017 |
| GATGTTGTTG | 0.997 ± 0.054 |
| TACCAAAGGT | 1.02 ± 0.031 |
| TTGCGACCTG | 1.05 ± 0.04 |
| TAATGGAAAA | 1.15 ± 0.28 |
| GGAGGGTGAG | 0.984 ± 0.014 |
| AGAAGTTTCG | 1.011 ± 0.0068 |
| ACCGGTTTTC | 0.984 ± 0.023 |
| TTTAATGCGC | 1.23 ± 0.37 |
| CCGAGAGGGG | 0.999 ± 0.041 |

| Sequence | switch fluorescence ratio |
| --- | --- |
| TACGAATAGA | 1.056 ± 0.0097 |
| AAGATGCAGC | 1.05 ± 0.12 |
| AATAGGGGCT | 1.02 ± 0.054 |
| TTTGCAGGGG | 1.06 ± 0.1 |
| TGAAGAACGC | 1.07 ± 0.021 |
| TAAGTGGTA | 0.993 ± 0.042 |
| CAGGGCGGGG | 0.979 ± 0.037 |
| ATTTAACCCG | 1.02 ± 0.044 |
| GATGAAAGTG | 0.99 ± 0.025 |
| TTCAAGGGGG | 1 ± 0.018 |
| AAGGTTTGCG | 1.01 ± 0.025 |
| CAATTTGTGT | 0.983 ± 0.012 |
| GGGTCGCCTG | 0.992 ± 0.033 |
| TTTGGTAAAA | 1.01 ± 0.037 |
| CAGTTTTGAT | 0.998 ± 0.019 |
| TCAGTCCGGA | 1.02 ± 0.024 |
| TCAGTGCCAG | 0.992 ± 0.022 |
| TTTTTTCCTC | 1.1 ± 0.2 |
| GGGGGCAGGA | 0.987 ± 0.017 |
| TTGGGTGCCG | 1.03 ± 0.048 |
| GGGGCCGAGG | 0.9573 ± 0.0075 |
| GAGGTAGGTC | 0.9945 ± 0.0019 |
| CAGGTAAGGT | 1.014 ± 0.0035 |

| Sequence | switch fluorescence ratio |
| --- | --- |
| GATTTTTAAA | 1.02 ± 0.035 |
| GCAGGAGCAT | 1.03 ± 0.052 |
| GGGGGATTGT | 1.02 ± 0.043 |
| GGAATTTGTT | 1 ± 0.021 |
| GGGACCTAAG | 1 ± 0.024 |
| AGAGGGTCTC | 0.973 ± 0.058 |
| CGTAGCGTCC | 1.13 ± 0.019 |
| TAATTAGTGT | 0.979 ± 0.013 |
| GGGTAGGCGG | 0.941 ± 0.029 |
| AAAGAGGGTT | 1.02 ± 0.019 |
| GCTCGAAATG | 1.07 ± 0.031 |
| AGGCCGGGGT | 1.01 ± 0.055 |
| AAGTTACATT | 1.05 ± 0.012 |
| GATGGTTTGA | 1.02 ± 0.021 |
| ATCGTGGGAA | 0.9793 ± 0.0059 |
| AATGCTAATA | 0.952 ± 0.011 |
| ATCTGGCTCG | 0.988 ± 0.016 |
| AGCTAATCGT | 1.01 ± 0.014 |
| AAAGGCCCGA | 1.0084 ± 0.00039 |
| TTCCGTTAGA | 1.06 ± 0.017 |
| AATAGGGCCT | 1.02 ± 0.023 |
| TGCAGATTTC | 0.9978 ± 0.0088 |
| TTAGGTAGGG | 0.988 ± 0.028 |

| Sequence | switch fluorescence ratio |
| --- | --- |
| TTGTGCTGGG | 0.998 ± 0.022 |
| AAGAGGGCCT | 1.01 ± 0.037 |
| GGGGGGGGC | 0.989 ± 0.061 |
| GATTTAGAGC | 0.973 ± 0.037 |
| ATGACGCCTG | 1 ± 0.022 |
| AGGGAGGGGA | 1.03 ± 0.061 |
| ATTTGGGTTT | 0.992 ± 0.027 |
| ATGATGCAGA | 1.004 ± 0.008 |
| TTATTTCTTG | 0.994 ± 0.046 |
| TTTGCATTAG | 1.11 ± 0.028 |
| TGGCGGGGCT | 0.9972 ± 0.0064 |
| TCTGGGTCGC | 1.02 ± 0.017 |
| TCAGGGGAAG | 0.999 ± 0.015 |
| ATGACCTCGG | 1.02 ± 0.07 |
| AGCTTTCCTA | 0.9963 ± 0.007 |
| GCAATTTTTG | 1.002 ± 0.0066 |
| GGCCCTCTGA | 1.05 ± 0.018 |
| TTTAATGGAG | 1.02 ± 0.034 |
| CTAAATAGGG | 1.01 ± 0.049 |
